In IntAct's records for PubMed 26694203:

B1: Mesoderm posterior protein 1 (Homo sapiens), Q9BRJ9 (parent)
chain: MAQPLCPPLSESWMLSAAWGPTRRPPPSDKDCGRSLVSSPDSWGSTPADSPVASPARPGTLRDPRAPSVGRRGARSSRLGSGQRQSASEREKLRMRTLARALHELRRFLPPSVAPAGQSLTKIETLRLAIRYIGHLSAVLGLSEESLQRRCRQRGDAGSPRGCPLCPDDCPAQMQTRTQAEGQGQGRGLGLVSAVRAGASWGSPPACPGARAAPEPRDPPALFAEAACPEGQAMEPSPPSPLLPGDVLALLETWMPLSPLEWLPEEPK

Variants of: B1
Details: with tfe2_human TCF3, P15923
tfe2_human TCF3, P15923, sequence (P15923 whole entry): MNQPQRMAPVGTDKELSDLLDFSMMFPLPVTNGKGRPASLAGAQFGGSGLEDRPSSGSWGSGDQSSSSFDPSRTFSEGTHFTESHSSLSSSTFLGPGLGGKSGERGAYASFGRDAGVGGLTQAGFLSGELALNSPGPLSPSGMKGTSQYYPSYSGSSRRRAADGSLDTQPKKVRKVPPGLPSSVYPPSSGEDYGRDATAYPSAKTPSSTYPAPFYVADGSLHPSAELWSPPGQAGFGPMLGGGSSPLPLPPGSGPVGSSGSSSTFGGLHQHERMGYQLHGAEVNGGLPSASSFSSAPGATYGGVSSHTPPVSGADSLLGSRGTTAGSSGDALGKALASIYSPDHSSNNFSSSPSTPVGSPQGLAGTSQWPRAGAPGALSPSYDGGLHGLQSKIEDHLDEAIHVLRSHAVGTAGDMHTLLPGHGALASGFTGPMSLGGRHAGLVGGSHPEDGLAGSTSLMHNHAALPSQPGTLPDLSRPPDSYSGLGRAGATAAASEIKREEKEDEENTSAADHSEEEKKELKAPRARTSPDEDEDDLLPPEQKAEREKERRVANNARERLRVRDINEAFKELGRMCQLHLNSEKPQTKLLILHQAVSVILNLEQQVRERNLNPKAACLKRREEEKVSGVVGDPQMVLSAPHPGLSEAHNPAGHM

effect of a mutation on the interaction | Variant
decreasing interaction strength | L120P
decreasing interaction strength | D168G
decreasing interaction strength | E104K
with no effect | G70D
with no effect | K268N
